For the series the following is noted: Aspergillus oryzae (strain ATCC 42149 / RIB 40), 0 °C, Urea, CD, reversible: yes, whole UniProt chain shown.

B1: Guanyl-specific ribonuclease T1 wild type, P00651 (protein)
chain: MMYSKLLTLTTLLLPTALALPSLVERACDYTCGSNCYSSSDVSTAQAAGYQLHEDGETVGSNSYPHKYNNYEGFDFSVSSPYYEWPILSSGDVYSGGSPGADRVVFNENNQLAGVITHTGASGNNFVECT
For B1, under “pH 2.5, glycine 30 mM”, the denaturant m value is 1.58 kcal/mol/M and the “denaturant midpoint (higher = more stable)” value worked out at 2.78 M. Moreover, under “pH 7, MOPS 30 mM”, the denaturant m value came to 1.28 kcal/mol/M and the “denaturant midpoint (higher = more stable)” value came out at 4.32 M.

(Values after FireProtDB (doi:10.1021/bi9707180).)
